Measurements as given in the nanobody polyreactivity screen of Harvey et al. (2022).

Assay: yeast display, Sf9 membrane polyspecificity reagent, FACS + sequencing; frameworks hold sequencing errors
How it was run: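 Sorting gates, low and high (top ~1%), were placed on anti-HA fluorescence to track expression and on streptavidin fluorescence to track reagent binding. A clone's polyreactivity label is taken from the gate it came out of. The reagent was 10% biotinylated, detergent-solubilized Sf9 membrane, applied for 1 hour at 4 °C to galactose-induced yeast display cells.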

| Sequence | polyreactivity (PSR sort gate) |
| --- | --- |
| QVQLVESGGALVQAGGSLRLSCAASGSTFVYYAMRWYRQTPGKERELVAAIRSDASTNYADSVKGRFTISRDNAKNTVYLQMNILKPEDTAVYYCNTAQLVSDEFDYWGQGTQVTVSS | low polyreactivity |
| QVQLVESGGGLVQAGGSLRLSCAASGSTFPTYAMGWYRQAPGKERELVADITWSGGSTYYADSVKGRFTISRDNAKNTVYLQMNSLKPEDTAVYYCAAVFKAGSAYDYWGQGTQVTVSS | high polyreactivity |
| QVQLVESGGGLVQAGGSLRLSCAASGRILWQYAMGWYRPAPGKERELVAAITSSGADTYYADSVKGRFTISRDNAKNTVYLQMNSLKPEDTAVYYCNADASAVVYKFGFGYWGQGTQVTVSS | low polyreactivity |
| QVQLVESGGGLVQAGGSLRLSCAASGITFSRNTMGWYRQGPGKERELVAAITYSGGRTYYADSVKGRFTISRDNAKNTVYLQMNSLKPEDTAVYYCARRGTGKYPYYQHYYWGQGTQVTVSS | high polyreactivity |
| QVQLVESGGGLVQAGGSLRLSCAASGSTLYPYAMGWYRQAPGKEWELVAVITLRGGSTYYADSVKGRFTISRDNAKNSVSVQMKSLKPEDTAVYYCAADPRKVHSDDYDYWGQGTQVNVSS | high polyreactivity |
| QVQLVESGGGLVQAGGSLRLSCAASGSTFGHYAMGWSRQAPGKERELVARITSDDSTSYADSVKGRFTISRDNAKNTVYLQMNSLKPEDTAVDYCAARYYSYSWHPARYQGRYSWGQGTQVTVSS | high polyreactivity |
| QVQLVESGGGLVQAGGSLRLSCAASGIIFGTYAMGWYRQAPGKERELVAAINWSGGSTYYADSVKGRFTISRDNAKNTVYLQMNSLKPEDTAVYYCAADGNEYDYWGQGTQVTVSS | low polyreactivity |
| QVQLVESGGGLVQAGGSLRLSFAASGRIFTYYAMGWYRQAPGKERELVASISRSGGNTYYADSVKGRFTISRDNAKNTVYLQMNSLKPEDTAVYYCAAVYSRLDYWGQGTQVTVSS | high polyreactivity |
| QVQLVESGGGLVQAGGSLRLSCAASGRIFTYNAMGWSRQAPGKERELVAANTSSGGSTYYADSVKGRFTISRDYAKNTVYLQMNSLKPEDTAVYYCATVRRGRDYWGQGTQVTVSS | high polyreactivity |
| QVQLVESGGGLVQAGGSLRLSCAASGSIFSINAMGWYRQAPGKERELVAAISWDGGSTYYADSVKGRFTISRDNAKYTVYLQKNSLKPEDTAVYYCNAAGYVPRNIFAGSRSLRYDYWGQGTQVTVSS | high polyreactivity |
| QVQLVESGGGLVQAGGSLRLSCAASGRNFPYYAMGWYRQAPGKERELVATISSGGITNYADSVKGRFTISRDNAKNTVYLELNSLKPEDTAVYYCAADRHWSAGLWRYDYWGQGTQVTVSS | high polyreactivity |
| QVQLVESGGGLVQAGGSLRLSCAASGRTFDSNAMGWYRQAPGKERELVAAISYSGGSTYYADSVKGRFTISRDNAKNTVYLQMNSLKPEDTAVYYCNAGDVHKKPARDYWGQGTQVTVSS | low polyreactivity |
| QVQLVESGGGLVQAGGSLRLSCPASGSTYLIYAMGWYRQAPGKERELVARITSTGSTYYADSVKRRFTISRDNAMNTVYLHMNSLKPEDTAVYYCNAAGYQYYWHYYWGQGTQVTVSS | low polyreactivity |
| QVQLVESGGGLVQAGGSLRLSCAASGYTFSFNAMGWYRQAPGKEREFVAAIDFGGAGTYYADSVKGRFTISRDTAKKTVYLQMNSLKPEDTAVYYCNARDGVTTEFDYWGQGTQVTVAS | low polyreactivity |
| QVQLVESGGGLVQAGGSLRLSCAASGRIIGWYAMGRYRQAPGKERELVAAISQDATRTYYADSVKGRFTISRDNAKHTVYLQMNRLKPEDTAVYYCNVVYRYAGWSYDSWGQGTQVTVSS | high polyreactivity |
| QVQLVESGGGLVQAGGSLRLSCAASGSIFYYNAMGWSRQAPGKERELVAAIRSTGSSNDADSVKGRFTISRDNAKNTVYLQMNSLKPEDTAVYYCAADQYGRSRDYGYGYWGHGTQVTVSS | low polyreactivity |
| QVQLVESGGGLVQAGGSLRLSCAASGFTFRYYAMGWYRQAPGKERELVATITTSGGSTYYADSVKGRFTISRDNAKNTVYVQMNSLKPEDTAVYYCAADYYYGRRFRSWRDFNYWGQGTQVTVSS | high polyreactivity |
| QVQLVESGGCIVQAGGSLRLSCSASGLLFYINPMGWYRQAPGKEREFVAGINRNGGSTYYADSVKGRFTISRDNALYSVYLQMNSLKPEDTAVYYCNADQYWDRYFSWGQGTQGTVSS | low polyreactivity |
| QVQLVESGGGLVQAGGSLRLSCDASGRTFLTNTMGWYRQAPGKERELVAAISSGGSTKYADSVKGRFTISRDNAKNTVYLQMNSLKPEDNAVYYCAATGWRYGYKYYYWGQGTQVTVSS | high polyreactivity |
| QVQLVESGGGLVQAGGSLRLSCAASGFTFEYYAMGWYRQAPWKERELVATITWNGGSTYYADSVKGRFTISRDNAKNTVYFQMNSLKPEDTAVYYCAADEQAYYVRRFDYWGQGTQVTVSS | low polyreactivity |
| QVQLVESGGGLDQAGGSLRLICAASGRTFYYNVMGWYRQAPGKERELVAAISTGVSTNYADSVKGRFTISRDNAKNTVYLQMNSQKPEDTAVYYCNSRSYRWYRPVYRYDYWGQGTQVTVSS | high polyreactivity |

| Sequence | polyreactivity (PSR sort gate) |
| --- | --- |
| QVQLVESGGGLVQAGGSLSLSCAASGRTFSYYAMGWYRQAPGKERELVAAISRSGSITYYADSVKGRFTISRDNAKNTIYLQMNSLKPEDTAVYYCNADSSRRRYSSDYWGQGTQVTVSS | high polyreactivity |
| QVQLVESGGGLVQAGGSLRLSCAAYGRTLYYNTMGWYRQAPGKERELVASIRWDGGRTYYADSVKGRFTISRDNAKNTVYLQLNSLKPEDTAVYYCAKDGGYYYGTYAYDGCFDYWGQGTQVTVSS | low polyreactivity |
| QVQIVESGGGLVQAGGSLRLSCAASGIIFYRYAMGWSRQAPGKERELVAAITWSGVSTSYADSVKGRFTISRDNAKNTVYLQMNSLKPEVTAVYDCNKDPGTLYGDMDSWGQGTQVSVSS | low polyreactivity |
| QVQLQESGGGLVQASGSLRLSCASSGNIFPDYVMAWYRLAPGKEREFVANITGGSTTNYADSVKGRFTISRDNAKNTVDLQMNSLTPEDTAVYYCAVNFGTVVLYLYWGQGTQVSVSS | high polyreactivity |
| QVQLVESGGGLVQAGGSLRLSCAASGLTFWYYDMGWYRQAPGKERELVAAISGTGSTYADSVKGRFTISRDNAKNTVYLQMNSLKPEDTAVYYCAADYSGTPYAVYWQWGDYDYWGQGTQVTVSS | low polyreactivity |
| QVQLVESGGGLVQAGGSLRLSCAASGGIFVPNAMGWNRQAPGQEREFVARISFSGVSTYYADSVKGRFTISRDNAKNSVYLQLNSLKPEDTAVYYCACDKRARLGAMGYWGQGTQVTVSS | low polyreactivity |
| QVQLVESGGGLVQAGGSLRLSCAASGRTFYWNAMGWSIQAPGKERELVASISWSGGRTYYADSVKGRFTISRDNAKNTVYLQMISLKPEDTAVYYCARRYSGTPSTFYYWGQGTLVTVSS | high polyreactivity |
| QVQLVESGGGLLQAGGSLRLSCAASGRTFKYYAMGWYRQAPGKERELVAAISHSGGSTYYADSVKGRFTISRDNAKNTVYLQMNSLKPEDTAVYYCAADHGDGNYPYYYWGQGTQVTVSS | high polyreactivity |
| QVQLVESGGGLVQAGGSLRLSCAASGRTFNPNAMGWYRQAPGKERELVAAISSSGGSTYYADSVKGRFTISRDNAKNTVYLQMNSLKPEDTAVYYCAAVHKWYLYYYWGQGTQVTVSS | high polyreactivity |
| QVQLVESGGGLVQAGGSLRLSCAASGSNFGSNAMGWYRQAPGKERELVATISGRGGSTYYADSVKGRFTISRDNAKNTVYLQMNSLKPEDTAVYYCAKDRRTWRYGQVFSPYYYWGQGTQVTVSS | low polyreactivity |
| QVQLVESGGGLVQAGGSLRLSCAPSGFTFTYYAMGWYRQAPGQERELVAAITQSGGSTFYADSVQGRFTISRDNAKNTVYLQMNSLKPEDTAVYYCAADIDLYYDYDYWGQGTQVTVSS | low polyreactivity |
| QVQLVESGGGLVQAGGSLRLICAASGRIFLNSTMGSYRQEPGKERELVADITWRGGSTYYADSVKGRFTISRDNAKNTVYLQMNSLKPEDTAVYYWNAVSVSSKRSDYWVQGTQVTVSS | low polyreactivity |
| QVQLVESGGGLVKAGVSLRLICAASGSTFWYNDRGSYRQSPGKERELVASNSWSGGDTYYADSVKGRLTISRDNAQNTVYFQMNRLKPEDTAVYNCAKGNNWISRLMDYWGQGTQVTVSS | low polyreactivity |
| QVQLVESGGGLVQAGGSLRLSCAASGNTFGNYGMGWYRQAPGKEREFVAAITSRGTSTYYADSVKGRFTISRDNAKNTVYLQMNSLKPEDTAVYYCNARPRYKYPRYDYWVQGTQVTVSS | high polyreactivity |
| QVQLVESGGGLVQAGGSLRLSCAASGSTLFLYAMGWYRQAPGKERELVAAITWSGGSTYYADSVKGRFTISRDNAKNTVYLQMNSLKPEDTAVYYCAKYGRYFWNSGVDYWGQGTQVTVSS | high polyreactivity |
| QVQLVESGGGLVKAGGSLRLSCAASGRIFYYNTMGWYRQAPGKERELVAAITTNGGSTYYADSVKGRFTISRDNAKNTVYLQMNSLKPEDTAVYYCNRDRYPYYYAYNYWGQGTQVTVSS | low polyreactivity |
| QVQLVESGGGLDHAGGSLRLSCAASGYTLTDYVMGWYRQAPGKQRELVAAIDWRDGTTYADSVKGRFTISRDNAKNTVYLQFNILKPEDTAVYFCGTDELLTSPRYPEYDYWGQGTQVTVSS | low polyreactivity |
| QVQLVESGGGLVQAGGSLRLSCAASGSTFSAYTMGWYRQAPGKERELVARITNGGSTYYAESVKGRFTISRDNAKNTVYLQMNSLKPEDTAVYYCAAQLGWWGSGYWGQGTQVTLSS | high polyreactivity |
| QVQLVETWGGLVQAGGSLRLSCAASGRNFRTNAMGWYRQAPGKERELVAAITSDGTYYADSVKGRFTISRDNAKNNVYLQMNSVKPEDTAVYYCNVDDRETRDDYWGQGTQVTVSS | low polyreactivity |
| QVQLVESGGGLVQAGGSLRLSCAGSGIIFRGYDMGWYRQAPGKEMELVAAITWRGGSTYYADSVKGRFTISRDNAKNTVYLQMNSLKPEDTAVYYCAAVRKHSWFRHMDYWGQGTLVTVSS | high polyreactivity |
